Results as given in patent US20070026463A1, “Compositions and methods of mutant Nogo-66 domain proteins” (Wyeth, priority 2005, published 2007).

T1: human Nogo Receptor-1 protein (NgR1) (Homo sapiens, UniProt Q9BZR6)
T1 construct: expressed in transfected cells; host or cells: COS7
T1 sequence (Q9BZR6 27-447): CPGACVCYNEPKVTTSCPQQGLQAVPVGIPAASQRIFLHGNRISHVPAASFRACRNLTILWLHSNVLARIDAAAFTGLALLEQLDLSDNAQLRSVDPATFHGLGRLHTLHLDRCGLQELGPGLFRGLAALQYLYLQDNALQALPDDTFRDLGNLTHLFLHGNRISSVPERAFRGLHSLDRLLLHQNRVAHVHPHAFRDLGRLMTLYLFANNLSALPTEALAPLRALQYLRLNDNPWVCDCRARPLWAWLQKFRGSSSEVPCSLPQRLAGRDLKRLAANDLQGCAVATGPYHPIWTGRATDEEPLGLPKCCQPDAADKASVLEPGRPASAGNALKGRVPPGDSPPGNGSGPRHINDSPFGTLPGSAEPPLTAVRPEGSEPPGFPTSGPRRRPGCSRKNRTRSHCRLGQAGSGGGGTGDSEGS

T2: NgR1 (Homo sapiens, UniProt Q9BZR6)
T2 construct: expressed in transfected cells; host or cells: CHO
T2 sequence (Q9BZR6 27-447): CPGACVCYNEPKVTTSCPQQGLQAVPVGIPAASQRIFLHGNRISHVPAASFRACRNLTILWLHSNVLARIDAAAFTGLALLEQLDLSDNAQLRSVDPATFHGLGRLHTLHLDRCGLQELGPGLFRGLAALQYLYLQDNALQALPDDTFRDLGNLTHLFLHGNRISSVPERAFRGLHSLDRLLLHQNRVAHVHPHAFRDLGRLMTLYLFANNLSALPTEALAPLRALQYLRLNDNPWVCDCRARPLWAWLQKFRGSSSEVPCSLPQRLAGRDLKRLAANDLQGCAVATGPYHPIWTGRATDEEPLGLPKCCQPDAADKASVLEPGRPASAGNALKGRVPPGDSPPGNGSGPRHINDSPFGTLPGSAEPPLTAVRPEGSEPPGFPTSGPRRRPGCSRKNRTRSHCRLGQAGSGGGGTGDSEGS

T3: human Nogo Receptor-1 protein (NgR1) (human, UniProt Q9BZR6 27-447)
T3 construct: whole, on cells; also called NgR1 receptor
T3 sequence (looked up): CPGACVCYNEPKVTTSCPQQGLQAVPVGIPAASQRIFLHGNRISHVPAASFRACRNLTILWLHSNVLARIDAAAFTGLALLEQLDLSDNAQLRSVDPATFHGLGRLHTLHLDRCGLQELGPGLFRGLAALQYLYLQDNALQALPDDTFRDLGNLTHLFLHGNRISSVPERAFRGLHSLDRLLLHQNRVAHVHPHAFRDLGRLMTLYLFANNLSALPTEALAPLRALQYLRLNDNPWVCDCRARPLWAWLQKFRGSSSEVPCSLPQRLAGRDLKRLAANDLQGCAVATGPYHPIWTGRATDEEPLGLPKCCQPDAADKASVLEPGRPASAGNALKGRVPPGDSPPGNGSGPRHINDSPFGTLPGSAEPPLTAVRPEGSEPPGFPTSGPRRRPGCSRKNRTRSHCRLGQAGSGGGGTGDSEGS


Key:
[1] = Aggregation of purified fusion protein by polyacrylamide gel electrophoresis; format: physicochemical; conditions: protein purified from HEK293 conditioned medium by TALON metal affinity chromatography
Method: The cDNA (SEQ ID NO:15) of the full-length fusion protein was inserted into the pSMED2 mammalian expression vector and the predicted sequence was confirmed by standard means. The vector was transfected into HEK293 cells and after 48 hours the medium in which the cells were grown was collected (referred to as conditioned medium) (see Example 2). After transfection, the conditioned medium was assayed to determine whether the fusion protein was secreted from the cells. The presence of the fusion protein in the conditioned medium was verified by Western blotting using an antibody against the alkaline phosphatase portion of the fusion. The fusion protein was purified from conditioned medium by TALON (BD/Clonetech) metal affinity chromatography (via the 6 His-tag of the fusion protein) (see Example 2).

[2] = target: T1, human Nogo Receptor-1 protein (NgR1); test: Binding of purified fusion protein to NgR1-expressing COS7 cells, colorimetric alkaline phosphatase staining; conditions: colorimetric staining based on associated alkaline phosphatase activity
Method: Purified fusion protein was assayed for binding to COS7 cells expressing the human Nogo Receptor-1 protein (NgR1). […] Thus, a non-aggregated fusion protein was created that can be used as a reagent to explore the interaction of Nogo-66 with its receptor, or receptors, as well as to identify agents interfering in that interaction (see Example 3).

NgR1 = target: T2, NgR1; test: Cell-based chemiluminescent SEAP binding assay on CHO cells expressing NGR1; conditions: CSPD substrate
Method: A cell-based chemiluminescent SEAP (secreted alkaline phosphastase) assay was used to confirm binding between NgR1 and the fusion reporter protein having the amino acid sequence of SEQ ID NO:16.
On Day 1: CHO cells expressing NGR1 are seeded into each well of a Biocoat poly-D-lysine cellware 96-well plate (Becton Dickinson).
1. The medium is removed and cells are washed with 200 μl/well of HBAH (Hanks' balanced salt solution, bovine serum albumin at 0.5 mg/ml) at room temperature.
2. 100 μl of conditioned medium containing the fusion protein (i.e., conditioned medium prior to resin purification in Example 2 above) is added (or 2 μg of purified fusion protein can be added) to each well. The wells are incubated at room temperature for 90 minutes.
3. The medium is removed from the wells. The cells are washed six times with 200 μl HBAH at room temperature. For each wash, the HBAH is incubated with the cells for 5 minutes and the plates gently swirled.
4. The HBAH is removed. The cells are then fixed with 200 μl of fixative buffer (acetone-formaldehyde (60%, 3%, 20 mM HEPES, pH 7.0)) for 15 seconds at room temperature.
5. The cells are then washed three times with HBS (Hanks' balanced salt solution), 5 minutes each time at room temperature.
6. Buffers are equilibrated to room temperature. […]
16. Read the plates on a LMAXII Luminometer (Molecular Devices, Sunnyvale, Calif.). […]

[3] = target: T3, human Nogo Receptor-1 protein (NgR1); test: colorimetric alkaline phosphatase staining of COS7 cells expressing human NgR1
Method: Purified fusion protein was assayed for binding to COS7 cells expressing the human Nogo Receptor-1 protein (NgR1). Binding was confirmed by colorimetric staining of NgR1 expressing cells based on associated alkaline phosphatase activity conferred by the fusion protein (see Example 3). Thus, a non-aggregated fusion protein was created that can be used as a reagent to explore the interaction of Nogo-66 with its receptor, or receptors, as well as to identify agents interfering in that interaction (see Example 3).

| binding to COS7 cells expressing human NgR1 [2] | binding to NgR1 (NgR1) | binding result [3] | Molecule | aggregation state (bands of higher molecular weight) [1] | aggregation state (bands of higher molecular weight) ([1]; listed as fusion protein) |
| --- | --- | --- | --- | --- | --- |
| Binding was confirmed | can bind to NgR1 |  | SEQ ID NO:16: Fusion of signal peptide, human placental secreted alkaline phosphatase portion, enterokinase site, human Nogo-66 domain with Cys47 to Val, His6 tag | does not aggregate | not aggregated |
|  |  | binds | alkaline phosphatase mutant Nogo-66 domain fusion reporter protein (SEQ ID NO:16) (ligand, Expressed in HEK293 cells and secreted; Used either purified on TALON resin or as conditioned medium; also called fusion protein; secreted alkaline phosphatase mutant Nogo-66 domain fusion reporter protein) TSRSSGIIPVEEENPDFWNREAAEALGAAKKLQPAQTAAKNLIIFLGDGMGVSTVTAARILKGQKKDKLGPEIPLAMDRFPYVALSKTYNVDKHVPDSGATATAYLCGVKGNFQTIGLSAAARFNQCNTTRGNEVISVMNRAKKAGKSVGVVTTTRVQHASPAGTYAHTVNRNWYSDADVPASARQEGCQDIATQLISNMDIDVILGGGRKYMFRMGTPDPEYPDDYSQGGTRLDGKNLVQEWLAKRQGARYVWNRTELMQASLDPSVTHLMGLFEPGDMKYEIHRDSTLDPSLMEMTEAALRLLSRNPRGFFLFVEGGRIDHGHHESRAYRALTETIMFDDAIERAGQLTSEEDTLSLVTADHSHVFSFGGYPLRGSSIFGLAPGKARDRKAYTVLLYGNGPGYVLKDGARPDVTESESGSPEYRQQSAVPLDEETHAGEDVAVFARGPQAHLVHGVQEQTFIAHVMAFAACLEPYTACDLAPPAGTTDAAHPGNDDDDKLSRDKRIYKGVIQAIQKSDEGHPFRAYLESEVAISEELVQKYSNSALGHVNVTIKELRRLFLVDDLVDSLKHHHHHH |  |  |
